Measured values published in patent US20260226524A1, “GLUTAMINE SYNTHETASE MARKER FOR RECOMBINANT EXPRESSION” (priority 2023, published 2026).

B1: gerbil GS: Meriones unguiculatus glutamine synthetase, SEQ ID NO: 7 (nucleotide SEQ ID NO: 16), used as selectable marker (protein, listed as Meriones unguiculatus)
chain: MATSASSQLNKGIKQTYLALPQGEKVQAMYIWVDGTGEGLRCKTRTLDCEPKSVEELPEWNFDGSSTFQSEGSNSDMYLTPVAMFRDPFRKEPNKLVFCEVFKYNRKPAETNLRHSCKRIMEMVSNQRPWFGMEQEYTLMGTDGHPFGWPSNGFPGPQGPYYCGVGADKAYGRDIVEAHYRACLYAGVKIAGTNAEVMPAQWEFQIGPCEGVRMGDHLWVARFILHRVCEDFGVIATFDPKPIPGNWNGAGCHTNFSTKAMREENGLKFIEEAIEKLSKRHQYHIRAYDPKGGLDNARRLTGFHETSNINDFSAGVANRSASIRIPRTVGQEKKGYLEDRRPSANCDPYAVTEALVRTCLLNETGDEPFQYKN
modifications: Gerbil GS
B2: snake GS: Pseudonaja textilis glutamine synthetase, SEQ ID NO: 3 (nucleotide SEQ ID NO: 12), used as selectable marker (protein, listed as Pseudonaja textilis)
chain: MATSASSHLSKTIKQMYMKLPQGDKVQAMYIWIDGTGEFLRCKTRTLEREPKNVEDLPEWNFDGSSTFQSEGSNSDMYLVPSAMFRDPFRKDPNKLVLCEVLKYNRKPAETNLRSTCKRIMDMVSNQNPWFGMEQEYTLLGTDGHPFGWPSNGFPGPQGPYYCGVGADKAYGRDVVEAHYRACLYAGVNIGGTNAEVMPAQWEFQVGPCEGVDMGDHLWIARFILHRVCEDFGVIVSFDPKPIPGNWNGAGCHTNFSTKNMREEGGLKQIEDAIEKLGKRHQYHIRAYDPKGGLDNARRLTGFHETSNIHEFSAGVANRGASIRIPRNVGQVKKGYFEDRRPSANCDPYAVTEALVRTCLLNETGDEPFEYKN
modifications: Snake GS
B3: pigeon GS: Columbia Livia glutamine synthetase, SEQ ID NO: 5 (nucleotide SEQ ID NO: 14), used as selectable marker (protein, listed as Columbia livia)
chain: MALLRSVQCLLTYRASSYRLPALGGFVNLLQHSGGDRSATAACTRNPLVRSAAMATSASSHLSKAIKHMYMKLPQGDKVQAMYIWIDGTGEHLRCKTRTLDHEPKSLEDLPEWNFDGSSTFQSEGSNSDMYLRPAAMFRDPFRKDPNKLVLCEVFKYNRQSAETNLRHTCRRIMDMVSNQHPWFGMEQEYTLLGTDGHPFGWPSNGFPGPQGPYYCGVGADKAYGRDIVEAHYRACLYAGVKIGGTNAEVMPAQWEFQVGPCEGIEMGDHLWIARFILHRVCEDFGVIVSFDPKPIPGNWNGAGCHTNFSTKEMREDGGLKHIEEAIEKLSKRHQYHIRAYDPKGGLDNARRLTGFHETSNIHEFSAGVANRGASIRIPRSVGHEKRGYFEDRRPSANCDPYAVTEALVRTCLLNETGDEPFEYKN
modifications: pigeon GS
B4: Chinese hamster GS: Cricetulus griseus glutamine synthetase, SEQ ID NO: 9 (nucleotide SEQ ID NO: 18), Uniprot P04773; traditional selectable marker (protein, listed as Cricetulus griseus)
chain: MATSASSHLNKGIKQMYMSLPQGEKVQAMYIWVDGTGEGLRCKTRTLDCEPKCVEELPEWNFDGSSTFQSESSNSDMYLSPVAMFRDPFRKEPNKLVFCEVFKYNQKPAETNLRHTCKRIMDMVSNQHPWFGMEQEYTLLGTDGHPFGWPSDGFPGPQGLYYCGVGADKAYRRDIMEAHYRACLYAGVKITGTYAEVKHAQWEFQIGPCEGIRMGDHLWVARFILHRVCKDFGVIATFDSKPIPGNWNGAGCHTNFSTKTMREENGLKHIKEAIEKLSKRHRYHIRAYDPKGGLDNARRLTGFHKTSNINDFSAGVADRSASIRIPRTVGQEKKGYFEARCPSANCDPFAVTEAIVRTCLLNETGDQPFQYKN
modifications: Hamster GS
B5: koala GS: Phascolarctos cinerecus glutamine synthetase, SEQ ID NO: 1 (nucleotide SEQ ID NO: 10), used as selectable marker (protein, listed as Phascolarctos cinereus)
chain: MATSASSHLNKNIKQMYMNLPQGNKVLAMYIWIDGTGEGLRCKTRTLDSEPKSIDDLPEWNFDGSSTYQSEGSNSDMYLVPAALFRDPFRKDPNKLVFCEVFKYNRKPAETNLRHTCKRIMDMVTNQKPWFGMEQEYTLMGTDGHPFGWPSNGFPGPQGPYYCGVGADKAYGRDIAEAHYRACLYAGVKIVGTNAEAMPSQWEFQIGPCEGIEMGDHLWVARFILHRVCEDFGMIVTFDPKPIPGNWNGAGCHTNFSTKAMREENGLKFIEEAIERLSKRHKYHIRAYDPKGGLDNARRLTGFNETSNINEFSAGVANRGASIRIPRMVGQDKKGYFEDRRPSANCDPYAVTEALIRTCLLNETGEEPFQYKN
modifications: Koala GS
B6: ostrich GS: Struthio camelus australis glutamine synthetase, SEQ ID NO: 2 (nucleotide SEQ ID NO: 11), used as selectable marker (protein, listed as Struthio camelus)
chain: MATSASSHLSKAIKHMYMKLPQGEKVQAMYIWIDGTGEHLRCKTRTLDHEPKSLEDLPEWNFDGSSTFQAEGSNSDMYLRPAAMFRDPFRKDPNKLVLCEVFKYNRQSAETNLRHTCRRIMDMVSNQHPWFGMEQEYTLLGTDGHPFGWPSNGFPGPQGPYYCGVGADKAYGRDIVEAHYRACLYAGVKIGGTNAEVMPAQWEFQVGPCEGIEMGDHLWIARFILHRVCEDFGVIVSFDPKPIPGNWNGAGCHTNFSTKSMREDGGLKHIEEAIEKLGKRHQYHIRAYDPKGGLDNARRLTGFHETSSIHEFSAGVANRGASIRIPRNVGHEKKGYFEDRRPSANCDPYAVTEALVRTCLLNETGDEPFEYKN
modifications: OstrichGS
B7: junglefowl GS: Gallus gallus glutamine synthetase, SEQ ID NO: 6 (nucleotide SEQ ID NO: 15), used as selectable marker (protein, listed as Gallus gallus)
chain: MLRSLQCLLAYRVGSLPLRSWGHRLATTAHARTALASSAAMATSASSHLSKAIKHMYMKLPQGEKVQAMYIWIDGTGEHLRCKTRTLDHEPKSLEDLPEWNFDGSSTFQAEGSNSDMYLRPAAMFRDPFRKDPNKLVLCEVFKYNRQSADTNLRHTCRRIMDMVSNQHPWFGMEQEYTLLGTDGHPFGWPSNGFPGPQGPYYCGVGADKAYGRDIVEAHYRACLYAGVKIGGTNAEVMPAQWEFQVGPCEGIEMGDHLWIARFILHRVCEDFGVIVSFDPKPIPGNWNGAGCHTNFSTKNMREDGGLKHIEEAIEKLSKRHQYHIRAYDPKGGLDNARRLTGFHETSSIHEFSAGVANRGASIRIPRNVGHEKKGYFEDRRPSANCDPYAVTEALVRTCLLNETGDEPFEYKN
modifications: Junglefowl GS

Key:
[1] = tested on: Chinese Hamster Ovary CHO-K1 (CCL-61) host cell; assay: Flow cytometry analysis of GS expression via UnaG fluorescence in electroporated cell pools; format: cell-based; conditions: about 3 weeks post-seeding; for UnaG expression of cells (selection efficiency): MSX selection, FIGS. 3A-3B
Description: Vector design: Nearly all selectable marker currently used in GS system is Cricetulus griseus-derived GS. To investigate whether the GS from other species further improve titer or screening efficiency, a set of vectors were designed as described below: • a sequence coding for an eel green fluorescent protein UnaG, a 2A self-cleaving peptide and a glutamine synthetase, placed under the control of the SV40 promoter; • two expression cassettes, in which the sequences coding for the heavy chain and light chain of a human anti-RANKL antibody denosumab were placed under the control of CMV promoters, respectively; • a sequence coding for a protein conferring resistance to ampicillin, for use in prokaryotic cells; and • a prokaryotic origin of replication.
(§1) The 2A self-cleaving peptide allowed relatively equal molar expression of the two products separated by it, namely, the green fluorescent protein UnaG and glutamine synthetase. After random integration, GS expression in each individual cell was evaluated by monitoring UnaG level using flow cytometry. Denosumab here served as the secreted reporter for assessing titers using selectable glutamine synthetase markers from different species. The vectors differed from one another by the GS-coding sequences, which were derived from Chinese hamster (Cricetulus griseus), koala (Phascolarctos cinerecus), vesper bat (Pipistrellus kuhlii), gerbil (Meriones unguiculatus), ostrich (Struthio camelus australis), junglefowl (Gallus gallus), pigeon (Columbia Livia), and snake (Pseudonaja textilis), respectively.
(§2) Electroporation and cell screening: Expression vectors described above were first linearized by the restriction endonuclease Pvul (there was one Pvul site in the ampicillin resistant gene). Then linearized vectors were introduced into the host cell using cell electroporator (Lonza Nuleofector 2b). The host cell was derived from ATCC wild-type Chinese Hamster Ovary CHO-K1 (CCL-61) and adapted to serum-free suspension culture at Shanghai ZhenGe Biotech Co. Ltd. 24 hours post electroporation, cell pools were plated into culture flasks or 96-well plates (approximately 1, 200 cells/well, 300 wells per condition) in the absence of or presence of MSX (50 μM).
Flow cytometry analysis of GS expression: About 3 weeks post-seeding, cell pools electroporated with GS gene from indicated species were analyzed using Attune NxT flow cytometer (FIGS. 3A-3C). […] As shown, when the GS from Chinese Hamster was used as the selectable marker, most tested cells (>98%) remained UnaG “negative” in the presence of the MSX, indicating low selection efficiency.

[2] = tested on: Chinese Hamster Ovary CHO-K1 (CCL-61) host cell; assay: Bio-Layer Interferometry (Octet) analysis of denosumab expression in supernatants of cell pools selected with GS markers; format: cell-based; conditions: 50 μM MSX; for pools expressed detectable denosumab (>0.125 ug/mL): Day 20, among 300 seeded pools in 96-well plates, GS used as selectable marker; for median expression value of denosumab of positive pools: Day 20, positive pools (>0.125 ug/mL), Octet ProA biosensor
Description: Vector design: Nearly all selectable marker currently used in GS system is Cricetulus griseus-derived GS.
as §1, with “After” for “The 2A self-cleaving peptide allowed relatively equal molar expression of the two products separated by it, namely, the green fluorescent protein UnaG and glutamine synthetase. After”
as §2

| Molecule | UnaG expression of cells (selection efficiency) [1] | pools expressed detectable denosumab (>0.125 ug/mL) [2] [%] | median expression value of denosumab of positive pools [2] [µg/mL] | tested cells remaining UnaG negative ([1]; in the presence of the MSX (50 μM)) [%] |
| --- | --- | --- | --- | --- |
| B1 | significant amounts of cells showed positive UnaG expression | 63.6 | 2.67 | – |
| B2 | significant amounts of cells showed positive UnaG expression | 38.0 | 1.75 | – |
| B3 | significant amounts of cells showed positive UnaG expression | 52.0 | 2.27 | – |
| B4 | – | 4.3 | 1.07 | > 98 |
| B5 | significant amounts of cells showed positive UnaG expression | 85.6 | 2.86 | – |
| B6 | significant amounts of cells showed positive UnaG expression | 65.3 | 2.57 | – |
| B7 | significant amounts of cells showed positive UnaG expression | 73.6 | 2.51 | – |
